Laboratory results from US10562969B2, “Substitution monotherapy treatment for HIV-1 infection employing antibody PRO140” (CYTODYN INC., priority 2014, dated 2020).
Where “and” joins values, the source holds several entries; their conditions need not be identical. Equal entries are not always repeated. Where two headings read alike, the source gives them in different places. Marks after values point to notes of the source that are not given here.

What was measured:
HIV-1 [1] = conditions: dose-dependent; treatment period of 10-14 days; cited from earlier work
[2] = in vivo; cited from earlier work
[3] = single administration of solution, oral, healthy male volunteers; cited from earlier work
[4] = cited from earlier work
[5] = target: CCR5 on circulating lymphocytes (Homo sapiens, UniProt P51681); conditions: single IV injection; cited from earlier work
Chain of CCR5 on circulating lymphocytes (P51681 whole entry): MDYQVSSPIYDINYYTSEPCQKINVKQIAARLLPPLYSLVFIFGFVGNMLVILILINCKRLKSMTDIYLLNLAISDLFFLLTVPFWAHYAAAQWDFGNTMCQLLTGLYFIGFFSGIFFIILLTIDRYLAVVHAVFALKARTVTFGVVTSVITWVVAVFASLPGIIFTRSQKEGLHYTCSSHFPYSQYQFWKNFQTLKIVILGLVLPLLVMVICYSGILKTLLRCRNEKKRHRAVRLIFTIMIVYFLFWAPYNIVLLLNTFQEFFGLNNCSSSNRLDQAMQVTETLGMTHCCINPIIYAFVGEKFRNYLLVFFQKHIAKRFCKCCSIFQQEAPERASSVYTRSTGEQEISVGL

CCR5 [6] = target: T1, CCR5 (Homo sapiens, UniProt P51681); conditions: cited from earlier work
T1 sequence (P51681 whole entry): as above

[7] = in vivo
HIV-1 [8] = conditions: based on pharmacodynamic data from prior SC and IV studies
Method: The maximal change in HIV-1 viral load from baseline was determined at any point 59 days after initiation of therapy. To allow approximate comparisons between the IV and SC doses, the overall AUC observed for repeat SC doses was conservatively estimated by multiplying the measured AUC0-7d by the number of doses administered. Viral load and AUC data were fit to an Emax equation: E=Emax×AUC/(AUC+AUC50).

[9] = cited from earlier work; for mean change in CD4+ cell counts from baseline: 5 mg/kg IV
HIV-1 [10] = conditions: cited from earlier work
HIV-1 [11] = conditions: cited from earlier work; remark: listed apart in the source
HIV-1 [12] = experiment: Second Phase 2b extension treatment substitution study, PRO 140 monotherapy; assay type: in vivo, human
Method: As with the first TS study, only subjects with exclusive CCR5-tropic virus were to be enrolled. However, 6 out of 16 subjects were determined to have dual- or mixed-tropic (D/M) virus when screening blood samples were tested by HIV-1 Co-receptor Tropism by Proviral DNA method or Ultradeep Sequencing with Reflex (Quest Diagnostics), as a retrospective exploratory analysis.

HIV-1 [13] = conditions: antiviral; cited from earlier work
[14] = First Phase 2b treatment substitution study, CD4 cell count and safety; conditions: for CD4 cell count: individual subjects
Excerpt: Efficacy assessments at each week included assessment of viral load and CD4 cells count. Safety assessments consisted of physical exam, lab, and adverse event assessments at each treatment and follow-up visit.
The Per Protocol (PP) population was defined as the set of subjects who meet the ITT population requirements, and were not associated with a major protocol violation. This population was identified before the database lock. The PP population will be the primary analysis population for the analysis of primary and secondary endpoints. […] This population will be used for the analysis of safety parameters.

HIV-1 [15] = conditions: cited from earlier work; remark: listed apart in the source
[16] = subjects treated with SC PRO 140; cited from earlier work
HIV-1 [17] = system: HIV-1
Method: All potential study patients were screened and for entry and must be HIV positive with the type of virus, ‘R5’, that uses the coreceptor CCR5 for cell entry and infection.
The first phase 2b TS study, also noted above, was conducted based on the following protocol. The TS study was for the Human Immunodeficiency Virus Type-1 (HIV-1) Infection indication. The TS study involved forty patients, was 14 weeks long, and patients' viral loads were checked weekly. Patients enrolled in the study had undetectable viral load at day one of the study (viral load<50). […] Failure of a patient under study was determined to occur if their viral load (VL) was measured at >400 two times.
Patient enrollment was staggered in this study to facilitate adequate safety monitoring. A lead cohort included 12 subjects. Enrollment of additional 28 subjects was initiated after approval by the independent DSMB.
Subjects who met all eligibility criteria, as per data gathered from Screening Visit were eligible for treatment. […] The first treatment visit took place within 42 days of the screening visit. Eligible subjects received up to 14 treatments, given every week (±3 days) or until virologic failure, whichever occurred first. Visits during the treatment phase commenced on T1, i.e. the date of first treatment, with weekly visits (±3 days) thereafter.
Subjects who experienced virologic failure (defined as two consecutive HIV-1 RNA levels of ≥400 copies/ml separated by at least 3 days) at any time during the treatment phase underwent the virologic failure (VF) visit assessments and then exited the Treatment Phase to enter the follow-up phase of the study.
Subjects who experienced VF were followed up every 4 weeks until the viral suppression was achieved (i.e., plasma HIV-1 RNA levels to return back to <50 copies/mL).
Efficacy Analysis. The main analysis of primary and secondary endpoint will be conducted on the PP population and ITT population will be used for supportive analysis. […] VF is defined as two consecutive HIV-1 RNA levels of ≥400 copies/ml separated by at least 3 days. […] The statistical comparison will be conducted using Wilcoxon rank sum test and the median time to VF for this study will be compared to 30 days.

CCR5 [18] = target: T1, CCR5; set-up: endogenous in cells; conditions: for 29 days after treatment with both 5 and 10 mg/kg doses; cited from earlier work
R5 HIV-1 [19] = conditions: cited from earlier work
HIV-1 [20] = conditions: repeated administration; cited from earlier work
[21] = cited from earlier work; remark: listed apart in the source
R5 HIV-1 [22] = conditions: cited from earlier work; remark: listed apart in the source
[23] = interim, first cohort of 12 patients

CCCCN1C(=O)[C@@H]([C@H](O)C2CCCCC2)NC(=O)C12CCN(Cc1ccc(Oc3ccc(C(=O)O)cc3)cc1)CC2 [GW873140]
mean reductions in HIV-1 RNA levels (HIV-1 [1]): about 1 log10

CCO/N=C(\c1ccc(Br)cc1)C1CCN(C2(C)CCN(C(=O)c3c(C)cc[n+]([O-])c3C)CC2)CC1 [SCH-C]
mean reductions in HIV-1 RNA levels (HIV-1 [1]): about 1 log10

COC[C@@H](c1ccc(C(F)(F)F)cc1)N1CCN(C2(C)CCN(C(=O)c3c(C)ncnc3C)CC2)C[C@@H]1C [SCH-D]
mean reductions in HIV-1 RNA levels (HIV-1 [1]): about 1 log10
clinically significant changes in QTc intervals [2]: none of the above-identified agents induced clinically significant changes in QTc intervals

CCCCOCCOc1ccc(-c2ccc3c(c2)/C=C(/C(=O)Nc2ccc([S@@+]([O-])Cc4cncn4CCC)cc2)CCCN3CC(C)C)cc1 [TAK-652]
safety, tolerability [3]: safe and well tolerated

Cc1nnc(C(C)C)n1[C@H]1C[C@H]2CC[C@@H](C1)N2CC[C@H](NC(=O)C1CCC(F)(F)CC1)c1ccccc1 [UK-427,857]
mean reductions in HIV-1 RNA levels (HIV-1 [1]): about 1 log10
clinically significant changes in QTc intervals [2]: none of the above-identified agents induced clinically significant changes in QTc intervals

B1: PRO 140: humanized IgG4,κ monoclonal antibody (mAb) to the C-C chemokine receptor type 5 (CCR5) (antibody, chains of the INN, looked up, V domains shown)
VH: EVQLVESGGGLVKPGGSLRLSCAASGYTFSNYWIGWVRQAPGKGLEWIGDIYPGGNYIRNNEKFKDKTTLSADTSKNTAYLQMNSLKTEDTAVYYCGSSFGSNYVFAWFTYWGQGTLVTVSS
VL: DIVMTQSPLSLPVTPGEPASISCRSSQRLLSSYGHTYLHWYLQKPGQSPQLLIYEVSNRFSGVPDRFSGSGSGTDFTLKISRVEAEDVGVYYCSQSTHVPLTFGQGTKVEIK
mean AUC from time zero to infinity (AUC∞) ([4]; 5 mg/kg single IV, serum): 278 mg·days/L
mean AUC from time zero to infinity (AUC∞) ([4]; in vivo, iv, 0.5 mg/kg): 11.1 mg·days/L
mean serum half-life ([4]; in vivo, iv, 5 mg/kg): 84 h
duration of significant masking of CCR5 on circulating lymphocytes [5]: 2-4 weeks
Block Natural Activity of CCR5 (CCR5 [6]): No
PK profile [7]: favorable PK profile similar to that seen in prior clinical studies
PK samples, difference between subjects with and without virologic failure [7]: no significant difference observed
trough concentrations at which maximum virologic suppression is expected (HIV-1 [8]): ≥ 5 μg/mL
mean change in CD4+ cell counts from baseline ([9]; day 8): +129 cells/μL
mean change in CD4+ cell counts from baseline ([9]; day 15): +96 cells/μL
mean change in CD4+ cell counts from baseline ([9]; day 22): +83 cells/μL
effect on QTc interval or other electrocardiographic parameters ([9]; in vivo, iv): no significant effect
mean nadir reduction in viral load (HIV-1 [10]; single 5 mg/kg IV dose): 1.8 log10
mean nadir reduction in viral load (HIV-1 [10]; single 10 mg/kg IV dose): 1.8 log10
reduction in viral loads, all PRO 140-treated subjects (HIV-1 [10]; single IV infusion 5 or 10 mg/kg): more than 10 fold
mean max log10 reductions in viral load (HIV-1 [10]; treatment groups (5 and 10 mg/kg IV)): 1.83 log10
drops in plasma HIV-1 RNA levels (HIV-1 [11]; repetitive weekly administration of 324 mg SC): approximately 1.5 log10
drops in plasma HIV-1 RNA levels (HIV-1 [11]; single subcutaneous doses of 324 mg): approximately 1.0 log10
Proportion of Subjects with Virologic Failure within 24 weeks of PRO 140 Monotherapy (HIV-1 [12]; Total (N = 16)): 4/16
subjects experiencing virologic failure in the Extension study (HIV-1 [12]; four out of 16 subjects): 25%
Time on PRO 140 Monotherapy (HIV-1 [12]; individual subjects, interim, includes duration from PRO 140 Substitution study): 27 # of weeks (3×) and 28 # of weeks (2×) and 31 # of weeks and 22 # of weeks (5×) and 24 # of weeks and 29 # of weeks and 26 # of weeks
subjects with more than 20 weeks of PRO 140 monotherapy (HIV-1 [12]; interim, first TS study plus Extension): 10 out of 16 subjects and 14 out of 16 subjects
duration of complete viral-load suppression (HIV-1 [12]; ongoing extension study): ~11 months
IC90 (HIV-1 [13]): about 4 μg/ml
subjects reporting 'general disorders and administration site conditions' AEs ([14]; 13 of 40 subjects): 32.5%
subjects reporting 'infections and infestations' AEs ([14]; 14 of 40 subjects): 35%
reported AEs deemed either unlikely or not related to study treatment ([14]; 63/89 AEs): 70.7%
reported AEs deemed mild in nature ([14]; 72/89 AEs): 80.8%
subjects who experienced one or more adverse events ([14]; after at least one dose of PRO 140): 28 of 40 subjects
subjects who experienced an SAE ([14]; deemed not related to the study drug): 1 of 40 subjects
CD4 cell count ([14]; visit T3): 585 /mm^3 and 1043 /mm^3 and 760 /mm^3 and 962 /mm^3 and 667 /mm^3 and 755 /mm^3 and 1299 /mm^3 and 677 /mm^3 and 497 /mm^3 and 443 /mm^3 and 625 /mm^3 and 554 /mm^3 and 901 /mm^3 and 858 /mm^3 and 513 /mm^3
CD4 cell count ([14]; visit T5): 585 /mm^3 and 465 /mm^3 and 356 /mm^3 and 994 /mm^3 and 704 /mm^3 and 831 /mm^3 and 642 /mm^3 and 509 /mm^3 and 514 /mm^3 and 859 /mm^3 and 665 /mm^3 and 785 /mm^3 and 646 /mm^3
CD4 cell counts throughout the Treatment Phase ([14]; overall review, 40 subjects): maintained at stable levels
Development of Resistance in Vitro (HIV-1 [15]): None at 40 weeks
Viral Cross-Resistance (HIV-1 [15]): Limited
CD4+ cell counts [16]: trend towards increased CD4+ cell counts
enrolled subjects who completed 12 weeks of PRO 140 Monotherapy without experiencing virologic failure (HIV-1 [17]; 22 out of 40 enrolled subjects): 55%
Proportion of Subjects with Virologic Failure within 4 weeks of PRO 140 Monotherapy (HIV-1 [17]; CCR5 (N = 24)): 1/24
Proportion of Subjects with Virologic Failure within 12 weeks of PRO 140 Monotherapy (HIV-1 [17]; CCR5 (N = 24)): 8/24
Virologic Failure anytime during Treatment Phase (HIV-1 [17]; CCR5- plus Dual/Mixed-tropic Population N = 40): 18 n
Proportion of Subjects with Virologic Failure within 12 weeks of PRO 140 Monotherapy (HIV-1 [17]; Total (N = 40)): 18/40
Proportion of Subjects with Virologic Failure within 4 weeks of PRO 140 Monotherapy (HIV-1 [17]; Total (N = 40), 350 mg SC weekly): 1/40
Virologic Failure (HIV-1 [17]; individual subjects reported as Dual/Mixed): YES
patients who experienced virologic failure after 11 weeks of monotherapy (HIV-1 [17]; [23]): 7 patients
patients who had not experienced virologic failure after 10 weeks of monotherapy (HIV-1 [17]; [23]): five
patients who passed four weeks of monotherapy (no virologic failure) (HIV-1 [17]; [23]): 100%
patients with viral load suppression after 8 weeks of monotherapy (HIV-1 [17]; interim, first cohort, excluding two dual-mix virus patients (six of ten)): 60%
virologic failure subjects who achieved viral suppression to <400 and to 'Non Detectable' or <50 HIV-1 RNA copies/ml (HIV-1 [17]; once ART reinitiated, seventeen of eighteen subjects): 94.4%
receptor occupancy (reduction in the number of cells detected) (CCR5 [18]): > 85%
time mean viral load reductions of greater than 1 login were sustained post-treatment (R5 HIV-1 [19]; 5 mg/kg IV group): 2-3 weeks
development of viral resistance to PRO 140 (R5 HIV-1 [19]; after single IV dose, followed 58 days): no significant development of viral resistance to PRO 140 was observed
viral load reduction on average (R5 HIV-1 [19]; single 5 mg/kg IV dose): 1.83 login
control of HIV-1 replication (HIV-1 [20]): prolonged control of HIV-1 replication without viral escape
Tolerability ([21]; in vivo): No Toxicity
time serum concentrations are maintained above the IC50 for clinical isolates of HIV-1 ([21]; single dose of 324 mg): at least 2 weeks
persistence of antiviral effects after the final dose (R5 HIV-1 [22]; 324 mg SC doses): one week
mean nadir reduction in viral load (R5 HIV-1 [22]; 324 mg SC weekly for three weeks): 1.65 log10
